# Experimental data from patent publication US12703739 (VANDERBILT UNIVERSITY, dated 2026).
# B1: RVFV-121 (antibody, V domains shown)
# VH: QMQLQESGPGLVKPSGTLSLTCAVSGDSISTSTWWSWVRQSPGKGLEWIGEIYHSESTNYNPSLKSRVSLSLDKSKNQLSLRLSSVTAADTGVYYCARGSLVFDYWGQGAQVVVSS
# VL: EIVMTQSPATLSVSPGERATLSCRASQSVSSNLAWYQQKPGQAPRLLIYAASTRATGIPARFSGSGSGTEFTLTISSLQSEDFAVYYCQQFNNWPRTFGQGTKVEIK
# B2: RVFV-249 (antibody, V domains shown)
# VH: QVLLVQSEAEVRKPGASVKISCKTSGYTFTTYFMHWVRQAPGQGLEWVAIVDPSTGNTGYAQRFQGRVTVTRDTSTGTLFMELTSLTTEDTAMYYCGRDRGSRAVDSWGQGTLVTVFS
# VL: QSVLTQPPSVSGAPGQRVTISCSGSSSNVGPNTVSWYQQLPGVAPKLLIYRNNQRPSGVPDRFSGSKFGTSASLVIGGLQSEDEADYYCAAWDDSLNGHMVFGGGTKVAVL
# B3: RVFV-250 (antibody, V domains shown)
# VH: QVQLQESGPGLAKPSETLSLTCTVSGGSISSYFWSWIRQPAGKGLEWIGRIHTTGSTNYNPSLKNRVIMSVDTSKNQFSLNLSSVTAADTAVYYCAREGTAFDIWGQGTMVTVSS
# VL: SYELTQSPSVSVSPGQTASIPCSGDKLGDKYACWYQQKPGQSPVLVIYQDTKRPSGIPERFSGSNSGNTATLTISETQAMDEADYYCQAWDSSTPWVFGGGTKLTVL
# B4: RVFV-326 (antibody, V domains shown)
# VH: EAQLVESGGGLVKPGGSLRLSCAASGFSFSYAWMSWVRRLPGKGLEWVGRIKGKADGETTDYAAPVKGRFTISRDDSKTTVYLQMNTLKIEDTGVYYCTTDIGDFYDSIGYSYTDYWGQGTLVTVSS
# VL: EIVLTQSPATLSLSPGERATLSCRASQSVSSYLAWYQQKPGQAPRLLIYDASNRATGIPVRFSGSGSGTDFTLTISSLEPEDFALYYCQQRSDWPPTFGQGTKVEIK
# B5: RVFV-379 (antibody, V domains shown)
# VH: QVQLQESGPGLVKPSQTLSLTCTVSGDSISGGDYYWSWIRRPAGEGLEWIGRVHTTGSTDYNPSLRTRVTISIDTSKNHFFLKMTSVTAADTAVYYCAREGDYSAWFDPWGQGALVTVSS
# VL: DIQMTQSPSSLSASIGDRVTITCRASQHIESFLNWYQQKPGKAPKLLIYIASTLQGGVPSRFSGRGFGTDFTLTINSLQPEDFATYYCQQSYTISPITFGQGTRLEIK
# B6: RVFV-381 (antibody, V domains shown)
# VH: QEQLVESGGGVVQPGRSLRLSCAASGFTLRGYGIYWVRQAPGKGLEWVAVISHDGKNESYTDSVKGRFSISRDKSKNTVFLQMNSLTTQDTSVYYCARWTEGSEEFYYHGLDVWGQGTTVTVSP
# VL: SYELTQPPSVSVSPGQTARITCSGHLLPKQYAYWYQQKPGQAPTLVIYADYNRASGIPERFSGASSGTTVTLTITGVKAEDQADYYCQSIDNRFHYPMIFGGGTKLTVL
# B7: RVFV-401 (antibody, V domains shown)
# VH: QITFKESGPTLVKPTQTLTLTCTFSGFSLSTSGVGVGWIRQPPGKALEWLALLYWNDDKRYTPSLRSRLTITKDTSKNQVVLTMTDMDPVDTATYYCARKPRDDFLRLTMMGGGDYFDYWGQGTLVTVSS
# VL: SYELTQPPSVSVSPGQTARITCSGDALPDQYAYWYQQKPGQAPVLVLYKDNERPSGIPERFSGSTSGTTVTLTISGVQAEDEADYYCQSADTSTAYHVIFGGGTKLTVL
# B8: RVFV-296 (antibody, V domains shown)
# VH: QVQLVQSGSELKKSGASVKVSCRASGYTFTTYVMNWVRQAPGQGLEWMGWINTNTGNPTYAQGFTGRFVFSLDTSVSTAYLQINSLKAEDTAVYYCAREYNSFDYWGQGTLVTVSS
# VL: QSVLTQPPSVSGAPGQRVTISCTGSSSNIGAGYDVHWYQQLPGTAPKLLIYDNNNRPSGVPDRFSGSRSGTSTSLAITGLQAEDEADYYCQSYDFRLSGSVFGGGTKVTVL
# B9: RVFV-436 (antibody, V domains shown)
# VH: QVQLHESGPGLVKPSETLSLTCGVSGYTISSDYYWGWIRQPPGKGLEWIGSIYQNGHTYYNPSLKSRVTISVDTSKNQFSLELSSVTAADTAVYYCARRGDCGADCYHFDYWGRGTAVTVSS
# VL: SYEVTQPLSVSVSPGQTASITCSGEKLENKYVSWYQQKPGQSPVLVMYQDFKRPSGIPERFSGSNSGNTATLTISGTQAMDEADYYCQAWDRSTFYVFGTGTKVTVVG
# B10: RVFV-426 (antibody, V domains shown)
# VH: QVQLQESGPGLLKPSQTLSLTCGVSGDSITSTGDSWTWIRQPPGKGLEWIGYIYYSGSAYYNPSLKSRVTISVDTSKNQFSLRLRSVTAADTAVYYCARALEYGAGSWAAAFWGQGILVTVSS
# VL: SYEVTQPPSVSVSPGQTASITCSGDKLVERYVSWYQQKPGQSPLLVIYHDIKRPSGIPERFSGSNSGNTATLTISGTQPMDEADYYCQAWDSSTVLFGGGTKLTVL
# B11: RVFV-226 (antibody, V domains shown)
# VH: EVQLVESGGGLVQPGRSLRLSCAASGFTFDDYAMHWVRQAPGKGLEWVSGISWNSGSIGYVDSVKGRFTISRDNAKNSLYLQMNSLRAEDTALYYCAKGLVGAIHDAFDIWGQGTMVTVSS
# VL: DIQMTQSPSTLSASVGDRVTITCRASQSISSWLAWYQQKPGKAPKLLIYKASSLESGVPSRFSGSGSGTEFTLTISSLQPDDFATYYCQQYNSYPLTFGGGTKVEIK
# B12: RVFV-405 (antibody, V domains shown)
# VH: EVQLVESGGGLVQPGGSLRLSCAASGFTFSSFEMNWVRQAPGKGLEWVSYISRSGTTKHYADSVKGRFAISRDDAKNSLYLQMNSLRAEDTAVYYCARGGARVLQAPLDYWGQGTLVTVSS
# VL: SYELTQPPSVSVAPGETARITCGGTNIGNKSVRWYQQKPGQAPVLVIYYDNDRPSGIPERFSGSNSGNTATLTISRVEAGDEADYYCQVWDNSSDHAVFGGGTKLTVL
# B13: RVFV-429 (antibody, V domains shown)
# VH: QVQLVQSGAEVKKPGSSVKVSCRASGGTFSSYTISWVRQAPGQGLEWMGGIIPILGLTKFAQKFQDRVTITADISATTTYMELSSLTSEDTAVYYCARNGEQLEWSYYYGMDVWGQGTTVTVSS
# VL: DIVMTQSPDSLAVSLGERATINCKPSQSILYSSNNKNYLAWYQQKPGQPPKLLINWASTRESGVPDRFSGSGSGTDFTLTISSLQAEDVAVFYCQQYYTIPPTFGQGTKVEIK
# Biological target: Gc of RVFV-SA51 (Rift Valley Fever Virus strain SA51)
# Experiment: cell-based or functional assay
row,Binder,"IC50 (ng/ml), neutralization of RVFV-SA51"
1,B1,1110 ng/mL
2,B2,30000 ng/mL
3,B3,120 ng/mL
4,B4,370 ng/mL

# Biological target: Gn of RVFV-MP-12 (Rift Valley Fever Virus strain MP-12)
# Experiment: cell-based or functional assay
row,Binder,"IC50 (ng/ml), neutralization of RVFV-MP-12"
1,B5,1.3 ng/mL
2,B6,4440 ng/mL
3,B7,2120 ng/mL
4,B8,638 ng/mL
5,B9,2.5 ng/mL
6,B10,9.1 ng/mL
7,B11,7690 ng/mL
8,B12,30000 ng/mL
9,B13,0.9 ng/mL

# Biological target: Gc of RVFV-ZH501 (Rift Valley Fever Virus strain ZH501)
# Experiment: cell-based or functional assay
Binder,Fold-Change ZH501/MP-12 (ratio of neutralization IC50s),"IC50 (ng/ml), neutralization of RVFV-ZH501"
B1,31.7 fold,1110 ng/mL
B2,4.4 fold,30000 ng/mL
B3,2.4 fold,120 ng/mL
B4,15.9 fold,1110 ng/mL

# Biological target: Gn of RVFV-ZH501 (Rift Valley Fever Virus strain ZH501)
# Experiment: cell-based or functional assay
Binder,Fold-Change ZH501/MP-12 (ratio of neutralization IC50s),"IC50 (ng/ml), neutralization of RVFV-ZH501"
B5,3.5 fold,4.57 ng/mL
B6,2.3 fold,10000 ng/mL
B7,0.2 fold,370 ng/mL
B8,0.2 fold,120 ng/mL
B9,1.8 fold,4.57 ng/mL
B10,4.5 fold,41 ng/mL
B11,1.3 fold,10000 ng/mL
B12,1 fold,30000 ng/mL
B13,5.1 fold,4.57 ng/mL

# Biological target: Gc of RVFV-MP-12 (Rift Valley Fever Virus strain MP-12)
# Experiment: cell-based or functional assay
row,Binder,"IC50 (ng/ml), neutralization of RVFV-MP-12"
1,B1,35 ng/mL
2,B2,6790 ng/mL
3,B3,51 ng/mL
4,B4,70 ng/mL

# Biological target: Gn of RVFV-SA51 (Rift Valley Fever Virus strain SA51)
# Experiment: cell-based or functional assay
row,Binder,"IC50 (ng/ml), neutralization of RVFV-SA51"
1,B5,13 ng/mL
2,B6,10000 ng/mL
3,B7,1110 ng/mL
4,B8,120 ng/mL
5,B9,4.57 ng/mL
6,B10,120 ng/mL
7,B11,3330 ng/mL
8,B12,30000 ng/mL
9,B13,4.57 ng/mL
